Biological target: T1, FLAGタグとイヌCD20の融合タンパク (Jurkat/cCD20 に過剰発現) (イヌ (dog), UniProt Q3C2E2 1-297)
T1 construct: whole, on cells; Overexpressed in Jurkat cells by retroviral transduction (pMx-IP); Used whole on cells for flow cytometry and as 1% NP40 cell lysate for immunoprecipitation; also called canine CD20-FLAG; not shown: FLAG tag added at the C-terminus
T1 sequence (looked up): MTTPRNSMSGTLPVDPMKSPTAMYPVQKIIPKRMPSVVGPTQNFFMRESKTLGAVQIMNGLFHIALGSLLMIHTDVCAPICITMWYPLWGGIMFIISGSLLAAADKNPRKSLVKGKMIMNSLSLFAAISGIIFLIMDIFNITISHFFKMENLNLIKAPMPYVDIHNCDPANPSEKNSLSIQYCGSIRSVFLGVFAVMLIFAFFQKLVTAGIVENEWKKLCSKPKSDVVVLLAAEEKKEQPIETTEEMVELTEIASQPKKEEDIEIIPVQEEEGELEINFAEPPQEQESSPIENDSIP
Test: flow cytometry on Jurkat/cCD20 cells, secondary antibody

B1: 4E1-7抗体 (イヌCD20に対するラットモノクローナル抗体) (antibody, V domains shown)
VH: EVQLVESGGGLVQPGASLKLSCVASGFTFNDYWMSWVRQTPGKTMEWIGDIKYDGSYTNYAPSLKNRFTISRDNAKSTLYLQMSNVRSEDTATYYCTREAYYYSGDYWGQGVMVTVSS
VL: DIVLTQSPALAVSLGQRATISCKTNQNVDYYGNSYMHWYQQKPGQQPKLLIYLASNLASGIPARFSGRGSGTDFTLTIDPVEADDTATYYCQQSRNLPYTFGAGTKLELKR
notes: also called 4E1-7 antibody
B1: binds.

Source: patent JP2019026625A (dated 2019)
